Data reported in the nanobody polyreactivity screen of Harvey et al. (2022).

Assay: yeast display, Sf9 membrane polyspecificity reagent, FACS + sequencing; frameworks hold sequencing errors
Summary of the method: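 Nanobodies from a synthetic yeast display library (Saccharomyces cerevisiae BJ5465), induced 36–48 hours with galactose, were stained 1 hour at 4 °C with 10% biotinylated, detergent-solubilized Sf9 membrane reagent, enriched on streptavidin microbeads, then FACS-sorted. Anti-HA (expression) and streptavidin (reagent binding) fluorescence set low and high (top ~1%) gates. Polyreactivity labels come from the gate of origin. Genes were colony-PCR amplified, MiSeq 2 × 250 sequenced and filtered by CDR length.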

Sequence	polyreactivity (PSR sort gate)
QVQLVESGGGLVQAGGSLRLSFDASGFISGDNTMGWYRQAPGKERELVAAINSGGSTYYADSVKGRFTISRDNAKNTFYLQMNSLKPEDTAVYYCAADYSTWLRAYDFWGQGTQVTVSS	low polyreactivity
QVQLVESGGGLVQAGGSLRLSCAASGFILAYYAMGWYRQSPGKERELVAAISIGSSTDYADSVKGRFTISRDNAKNTVYLQMNSLKPEDTAVYYCAARDYYYEYDYWGQGTQVTVSS	low polyreactivity
QVQLVESGGGLVQAGGSLRLSCAASGRIFKVYAMGWYRQAHGKEREMVAAITSRGGSTYYADSVKGRFTISRDNSKNTVYLQMNSLKPEDTAVYYCAAARGLPSNKYYYWGQGTQVTVSS	high polyreactivity
QVQLVESGGGLVQAGGSLRLSCAASGRTFVYYAMGWYRQAPGKERELVATITRGGRTNYADSVKGRFTISRDNAKNTVYLQMNSLKPEDTAVYYCNARYSWWRSRVGSSHRPDGYWGQGTQVTVSS	high polyreactivity
QVQLVESGGGLVQAGGSLRLSCAASGRTFGTYAIVWYRPAPGKERELVAAITRRGGSTYYADSVKGRFTISRDNAKNTVYLQMNSLKPEDTAVYYCAARWFRYVPYSFPYLYKYDYWGQGTQVTVSS	low polyreactivity
QVQLVESGGGLVQAGGSLRLSCAASGSIFRAYAMGWYRQAPGKEGELVATITSGGRTNYADSVKGRFTISRDNAKNTVYLQMNSLKPEDTAVYYCNADHWLYYGAGYDYWGQGTQVTVSS	low polyreactivity
QVQLEESGGGLVQAGGSLRLSCAASGRILRGYVMGWYRQAPGKERELVATITGRGGSTYYADSVKGRFTISRDNAKNTVYLQMNSLKPEDTAVYYCNKDGYPYFGRSEYWGQGTQVTVSS	low polyreactivity
QVQLVESGGGLVQAGGSLRLSCAASGSTFDPNVMGWYRQAPGKERELVAGITWRGGRTYYADSVKGRFTISRDNAKNTVYLQMNSLKPEDTAVYYCNAEDWTRKYDYWGQGTQVTVSS	high polyreactivity
QVQLVESGGGLVQAGGSLRLSCAASGSTFDAYAMGWYRQAPGKERQLVAAITHGGSTNYADSVKGRFTISRDNAKNTVYLQMNSLKPEDTAVYYCNAQHRTVWGIFGRFNYWGQATQVTVSS	low polyreactivity
QVQLVESGGGLVQAGGSLRLSCAASGRTLSWYAMGWYRQAPGKEWEFVAAITSSGASTYYADSVKGRFTISRDNANNTVYLQMNSLKPEDTAVYYCNAAWRRVWFNYCGQGTQVTVSS	high polyreactivity
QVQLVESGGGLVQAGGSLRLSCAASGSTFDAYAMGWYRPAPGTERELVAGISTSGGSTYYADSVKGRFTISRDNAKYTVVLQMNSMIPEVYAVYYCGAGVFRYVDRYGDMEYWGQGTQVTVSS	low polyreactivity
QVQLVESGGGLDQAGGSLRLSCAASGRIFHVNVMGGYRQAPGKERELVAAISKSGGSTYYADSVKGRFTISRDNAKNTVYLQMNSLKPEDTAVYYCAAVRDSARYYYWGQGTHVTVSS	high polyreactivity
QVQLVESGGGLVQAGGSLRLSCAASGSTFGTNAMGRYRQAPGKERELVAVITFSGGSTYYADSVKGRFTISRDNAKNTVYLQMNSLKPEDTAVYYCAKDGFITFVYDHDYWGQGTQVTVSS	low polyreactivity
QDQLVESRGGLVQAGCSLRLSCAASGFIFLHYTMGSYRQAPRKERELVAGITYGHGSTSYADSVKGRFTISRDNAKNTVYLQMNRLKPEDTAVYYCATRYWYRTSYQLYDYWGQGTQVTVSS	low polyreactivity
QVQLVESGGGLVQAGGSLRLSCAASGRIFKDNAMGWYRQAPGKERELVATIDSGGDTNYADSVKGRFTISRDNAKNTVYLQMNSLKPEDTAVYYCNTEGFLSAVYAFGYWGQGTQVTVSS	low polyreactivity
QVQLVESGGGLVQAGGSLRLSCAASGFTFWLYAMGWYRQATGKEREFVAAISTSGGSTYADSVKGRFTISRDNAKNTVYLQMNSLKPEDTAVYYCNAGYLLYYDYHLFYWGQGTQVTVSS	low polyreactivity
QVQLVESGGGLVQAGGSLRLSCAASGRIFAGYPMGWYRQAPGKERELVATFTRGGSTNYADSVKRPFTISRDNAKNSVYLQMNSLKPEDTAVYYCNAAIRRHGGYAHEYWGQGTQVTVSS	low polyreactivity
QVQLVESGGGLVQAGGSLRLICAASGITFYYYAMGWYRQAPGKERELVAAITFTGGSTYYADSVKGRFTISRDNAKNTVYLQMNSLKPEDTAVYYCNRLGPLGDQQQYDYWGQGTQVTVSS	low polyreactivity
QVQLEESGGGLVQAGGSIRLSCAASGSTLVGNAMGWYRQAPGKERELVATIDLSDDITYYADSVKGRFTSSRDNAKNTFYLQMNSLKPEDTAVYYCSAEYYLYSTYTVSYGKYDYWGQGTQGTVSS	high polyreactivity
QVQLVESGGGLVQAGGSLRLSCAASGNTFNPNAMGWYRQAPGKERELVAVIRFRGGSTYYADSVKGRFTISRDNAKNTVYLQMNSLKPEDTAVYYCAADFLYYYLRYYYWGQGTQVTVSS	high polyreactivity
QVQLVESGGGLVQAGGSLRLSCAASGSIFYYNAMGWYRQAPGKERELVAAISWSGDSTYYADSVKGRFTISRDNAKNTVYLQMNSLKPEDTAVYYCNTDLVPWTEYWYDYWGQGTQVTVSS	low polyreactivity
QVQLVESGGGLVQAGGSLRLSCAASGRTFAIYVMGWYRQAPGKERELVAAISRSGGNTYYADSVKGRFTISRDNAKNTVYLQMNSLKPEDTAVYYCAARVRERYYWGQGTQVTVSS	high polyreactivity

Sequence	polyreactivity (PSR sort gate)
QVQLVESGGGLVQAGGSLRLSCAASGSIFVHNAMGWYRQAPGKERELVAAITWSGGSTYYADSVKGRFTISRDNAKNTVYLQMNSLKPEDTAVYYCNATYSVRYYLEFLNEPEMDYWGQGTQVTVSS	low polyreactivity
QVQLVESGGGLVQAGGSLRLSCAASGSIFYEYDMGWYRQAPGKERELVAALDGSADSTYYADSVKGRFTISRDNAKNTVYLQMNSLKPEDTAVYYCNTRYFRWDTEYGYWGQGTQLTVSS	low polyreactivity
QVQLVESGGGLVQAGGSLRLSCAASGRIFQYYAMGWYRQAPGKERELVATITSTGSTYYADSVKGRFTISRDNAKNTVYLQMNSLKPEDTAVYYCNADPWGIYETFGDHDYWGQGTQVTVSS	low polyreactivity
QVQLVESGGGLVQAGGSLRLSCAASGFIFRDNAMGWYRQAPGKERELVAAISERGGRTYYADSVKGRFTISRDNAKNTVYLQMNSLKPEDTAVYYCAAKTIYDTRGIRHYYWGQGTQVTVSS	high polyreactivity
QVQIVESGGGLVQAGGSLRLSCAASGFIFGPYAMGWYRQAPGKERELVAAMSRSGGDTYYADSVKGRFTISRDFEKNTVYLQMNSLKPEDTAVYYCAAVGKYSAYNYWGQGTQVTVSS	high polyreactivity
QVQLVESGGGLVQAGGSLRLSCAASGRIFSVYTMGWYRQAPGKERELVAAISSGASTNYADSVKGRFTISRDNAKNTVYLQMNSLKPEDTAVYYCAKVLTNFNLYYYWGQGTQVTVSS	low polyreactivity
QVQLVESGGGLVQAGGSLRLSCAASGIIFAWYAMGWYRQAPGKERELVAAISWSGGSTYYADSVKGRFTISRDNAKNTVYLQMNSLKPEDTAVYYCAADSDYGGYDYWGQGTQVTVSS	high polyreactivity
QVQLVESGGGLVQAGGSLRLSCAASGSTFIDYAMGWYRQAPGKEREFVAGISSGDSTDYADSVKGRFTISRDNAKNTVYLQMNSLKPEDTAVYYCNADWNPTERWFYWYTPLGYDYWGQGTQVTVSS	low polyreactivity
FVQAGGSLRLTCAASGSTFYGNAMGWYRQATGKERELVAGITGDGGSTYYADSVKGRFTISRDNAKNTVYLQMNSLKPEDTAVYYCAVDVIVLGQWPRQLDEFDYWGQGTQVTVSS	low polyreactivity
QVQLVESGGGLVQAGGSLRLSCAASGSTFSYNAMGWYRQAPGKERELVAAISKSGGSTSYADSVKGRFTISRDNAKNTVYLQMNSQKPEDTAVYYCNARYSRKYGYWGQGTQVTVSS	high polyreactivity
QVQLVDSGGGLVQAGGTLRLSCAASGSTFRYYAMGWYRQAPGKERELVAAISWNGGRTYYADSVKGRFTISRDNAKNTVYLQMNSLKPEDSAVYYCDAVHYVAYYGYDFWGQGTQVTVSS	high polyreactivity
QDQLVESGGGLVQAGGSLRLSCAASGSIFVENDMGWYRQAPGKERELVAVITSGGSTYYADSVKGRFTISRDNAKNTVYLQMNSLKPEDTAVYYCNKDYAAIDRYDSWGQGTQVTVSS	low polyreactivity
QVQLVESGGGLVQAGGSLRLSCAASGSIFYRNAMGWYRQAPGKERELVAAITSSGGSTYYADSVKGRFTISRDNAKNTVYLQMNSLKPEDTAVYYCATRGWSKQLYGGYTQYYYWGQGTQVTVSS	high polyreactivity
QVQLEESGGGLVQAGGSLRLSCAASGSIFDYYAMGWYRQAPGTERELVATITSGVSTYYADSVKGRFTISRDNAKNTVYLQMNSLKPEETAVYYCARDYAKSQDVYKYDYWGQGTQVTVSS	low polyreactivity
QVQLVESGGGLVQAGGSLRLSCAASGRTFYRKAMGWYRQAPGKERELVAAITYGGGSTYYADSVKGRFTISRDNAKNTVYLQMNSLKPEDTAVYYCNALRNVRTGRTQVLSYYWGQGTQVTVSS	high polyreactivity
QVQLVESGGGLVQAGGSLRLSCAASGFTFFVYAMGWYRQAPGKERELVATINWSGASTYYADSVKGRFTISRDNAKNTVYLQMKSLKPEDTAVYYCAKDGHYPLVYLAFDYWGQGTQVTVSS	low polyreactivity
QVQLVESGGGLVQAGGSLRLSCDASGRIFYRYVMGWYRQAPGKERELVAAIRNSGGSTYYADSVKGRFTISRDNAKNTVYLQMNSMKPEDTAVYYCAKRYGTSFYVGSAKIGYDYWGQGTQVTLSS	high polyreactivity
QVQLQESGSGLVQAGGSLRLSSAASGNISHYNDMGWYRQAPGKEREPVATINSGSITYYADSVKGRFTISRDNAKNTVYLQMNSLKPEDTAVYYCAVTQHGYFYLDYWGQGTQVTVSS	high polyreactivity
QVQLVESGGGLVQAGGSLRLSSAASGRIFKRYTMGSYRQAPGKERELVAANTKRADRTNYADSVNGRFTISRDNAKNTVYLQMNSLKAVDTAVYYCNAEGQNDHPSNGYISYNYDYWGQGTQVTVSS	low polyreactivity
QVQLVESGGGLVQAGGSLRISCAASGRTFHYNVMGWYTQAPGKERELVAAITNTGGSTYYADSVKGRFTISRDNAKNTVYLQMNSLKPEDTAVYYCAAVIWGRRYGAYPYEYWGQGTQVTVSS	low polyreactivity
QVQLVESGGGLVQAGGSLRLSCAASGSIIGIYDMGWYRQAPGKERELVAAISWSGGSTYYADSVKGRFTISRDNAKNTVYLQMNSLKPEDTAFYYCAARGHYQYYWGQGTQVTVSS	low polyreactivity
